Data on three substances can be found in paper PMC10998612.

The target of experiment [1] is fluorescein-labeled peptide corresponding to repeat 3 (PPP1R15A^420-466), wild type (human) (UniProt O75807). Kind of experiment: fluorescence polarisation; 5 µL 100 nM fluorescein-labeled peptide probe mixed with 5 µL of increasing concentrations of eIF2 trimer or eIF2α-NTD; 20 mM Tris pH 7.4, 0.1 M NaCl, 1 mM TCEP, 0.01% Triton X-100; one-site binding fit; three experiments. Background: Polarisation of emitted light reports the rotation of a fluorescent probe.
Sequence of fluorescein-labeled peptide corresponding to repeat 3 (PPP1R15A^420-466), wild type (human) (O75807 420-466): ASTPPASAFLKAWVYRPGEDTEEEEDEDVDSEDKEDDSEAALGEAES

Experiment [2] has as its target extended PPP1R15A^325-636, wild type (bacterially expressed) (human) (UniProt O75807).
The target in experiment [3] is eIF2 trimer, endogenous (detected by its α subunit), P05198;P20042;P41091. Kind of experiment: GFP immunoprecipitation (co-IP) and immunoblot, quantified. As to conditions: HEK293T cells; 20% (v/v) of immunoprecipitation fractions analyzed; parent: est. 0.14; read off a plot. For orientation: In western blotting, separated proteins are transferred to a membrane and probed.

Sequence of eIF2 trimer (recombinant, not phosphorylated) (P05198 whole entry): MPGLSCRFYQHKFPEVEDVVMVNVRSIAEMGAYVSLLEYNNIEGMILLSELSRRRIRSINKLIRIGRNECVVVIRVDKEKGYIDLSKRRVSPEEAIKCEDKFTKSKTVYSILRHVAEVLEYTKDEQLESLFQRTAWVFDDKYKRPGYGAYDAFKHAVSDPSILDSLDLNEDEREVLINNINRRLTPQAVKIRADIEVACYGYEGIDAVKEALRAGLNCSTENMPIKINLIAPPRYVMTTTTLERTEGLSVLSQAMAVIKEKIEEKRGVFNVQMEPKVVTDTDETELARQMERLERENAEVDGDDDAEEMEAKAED
Sequence of eIF2 trimer (recombinant, not phosphorylated) (P20042 whole entry): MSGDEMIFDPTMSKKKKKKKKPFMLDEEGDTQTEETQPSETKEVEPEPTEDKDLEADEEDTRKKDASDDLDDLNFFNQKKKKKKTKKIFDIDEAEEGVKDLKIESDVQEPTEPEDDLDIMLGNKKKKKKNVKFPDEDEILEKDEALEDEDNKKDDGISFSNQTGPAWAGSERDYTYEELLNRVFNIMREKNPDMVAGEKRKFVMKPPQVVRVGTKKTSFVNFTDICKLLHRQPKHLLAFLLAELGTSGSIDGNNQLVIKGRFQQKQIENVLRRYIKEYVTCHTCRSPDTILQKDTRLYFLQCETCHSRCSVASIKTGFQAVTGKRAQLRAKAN
Sequence of eIF2 trimer (recombinant, not phosphorylated) (P41091 whole entry): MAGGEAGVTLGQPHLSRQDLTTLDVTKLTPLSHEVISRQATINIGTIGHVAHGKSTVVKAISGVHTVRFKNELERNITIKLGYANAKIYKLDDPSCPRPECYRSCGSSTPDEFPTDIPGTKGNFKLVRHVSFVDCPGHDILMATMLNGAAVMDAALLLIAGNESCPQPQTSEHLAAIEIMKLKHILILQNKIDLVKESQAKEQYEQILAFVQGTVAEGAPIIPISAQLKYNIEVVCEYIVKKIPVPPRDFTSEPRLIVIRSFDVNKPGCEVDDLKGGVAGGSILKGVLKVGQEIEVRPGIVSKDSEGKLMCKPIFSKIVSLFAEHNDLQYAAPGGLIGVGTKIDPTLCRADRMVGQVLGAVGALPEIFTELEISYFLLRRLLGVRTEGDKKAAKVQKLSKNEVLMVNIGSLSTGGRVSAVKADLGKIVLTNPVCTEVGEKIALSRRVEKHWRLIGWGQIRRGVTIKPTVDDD
Sequence of eIF2^P trimer (phosphorylated eIF2) (P05198 whole entry): as the sequence (P05198 whole entry) above
Sequence of eIF2^P trimer (phosphorylated eIF2) (P20042 whole entry): as the sequence (P20042 whole entry) above
Sequence of eIF2^P trimer (phosphorylated eIF2) (P41091 whole entry): as the sequence (P41091 whole entry) above
Sequence of full-length human PPP1R15A-GFP fusion protein, wild type (O75807 whole entry, stated change not applied, the tested form may be a part): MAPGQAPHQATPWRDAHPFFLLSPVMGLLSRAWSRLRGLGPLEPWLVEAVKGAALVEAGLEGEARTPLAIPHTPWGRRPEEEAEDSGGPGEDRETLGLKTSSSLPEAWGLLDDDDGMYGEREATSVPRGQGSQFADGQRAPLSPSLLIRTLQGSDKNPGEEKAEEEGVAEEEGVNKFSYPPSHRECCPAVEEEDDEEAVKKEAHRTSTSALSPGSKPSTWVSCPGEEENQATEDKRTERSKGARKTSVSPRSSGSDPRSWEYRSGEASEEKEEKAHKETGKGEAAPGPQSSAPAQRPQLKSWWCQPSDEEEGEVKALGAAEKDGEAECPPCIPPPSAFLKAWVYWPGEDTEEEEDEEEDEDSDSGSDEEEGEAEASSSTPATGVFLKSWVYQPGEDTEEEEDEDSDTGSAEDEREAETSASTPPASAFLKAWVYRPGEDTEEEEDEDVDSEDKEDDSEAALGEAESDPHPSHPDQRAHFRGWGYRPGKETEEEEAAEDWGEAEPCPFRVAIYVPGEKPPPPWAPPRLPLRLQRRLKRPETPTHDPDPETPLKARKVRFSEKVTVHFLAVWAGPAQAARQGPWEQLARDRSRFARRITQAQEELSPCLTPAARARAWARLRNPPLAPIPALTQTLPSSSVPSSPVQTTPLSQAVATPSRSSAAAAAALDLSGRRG
Sequence of extended PPP1R15A^325-636, wild type (bacterially expressed) (human) (O75807 325-636): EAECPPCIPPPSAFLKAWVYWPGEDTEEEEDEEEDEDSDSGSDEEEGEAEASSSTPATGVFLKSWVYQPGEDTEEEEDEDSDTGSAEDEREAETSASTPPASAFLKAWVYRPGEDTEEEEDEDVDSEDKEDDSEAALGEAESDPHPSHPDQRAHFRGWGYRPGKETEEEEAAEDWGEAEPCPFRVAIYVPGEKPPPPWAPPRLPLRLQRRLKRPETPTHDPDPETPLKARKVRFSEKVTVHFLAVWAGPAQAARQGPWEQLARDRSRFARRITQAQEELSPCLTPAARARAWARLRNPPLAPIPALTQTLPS

As to “eIF2 trimer (recombinant, not phosphorylated) (from UniProt P05198 1-315; P20042 1-333; P41091 1-472) (complex)”, the K (1/2max) in experiment [1] turned out to be 220 nM.

In experiment [2], “eIF2^P trimer (phosphorylated eIF2) (from UniProt P05198 1-315; P20042 1-333; P41091 1-472) (complex)” came in with a dephosphorylation of the eIF2^P trimer in vitro (PhosTag SDS-PAGE, kcat/Km) by the extended PPP1R15A^325-636-PP1-G-actin holophosphatase against the core PPP1R15A^533-624-PP1-G-actin holophosphatase (fold (kcat/Km)) of 10.

Regarding “full-length human PPP1R15A-GFP fusion protein, wild type (from UniProt O75807) F338A; W342A; F386A; W389A; F428A; W432A; F479A; W482A”, in experiment [3], the other: eIF2α/PP1 signal ratio is 0.0084.
